Experimental data reported in the supplement of paper PMC12764529.
± gives the half width of the 95% confidence interval.

assay: folding stability dG unfold from chymotrypsin proteolysis; higher = more stable
Outline: (§1)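 Only designs with AlphaFold2 dimer inter-PAE above 15 were retained; each was a mini-protein under 80 residues with no cysteine, in a PA-tagged cDNA display construct. After digestion with trypsin and chymotrypsin and sequencing, K50 was inferred by Bayesian fitting of counts, and unfolding free energy was derived per protease or combined against a sequence-predicted unfolded-state K50 and a shared folded-state K50.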

Going from “SMKPPVVEIKAKVVEVKEVNGKLYVKVEITEIKDAPPEVKELIKEGKTILVEVKPGEEVKEGDEVTIKIVSA [r9_557_TrROS_Hall]” to “SAGGSAMTPEEIRNMSLEEILKLIKEKLEKGEKVEIEITLPDGRKLRITFERLPNGEIKITIEEVDSAGGSA [r15_857_TrROS_Hall]”, the “folding stability dG unfold” value rises from 2.03 ± 0.22 kcal/mol to 5.04 ± 0.32 kcal/mol.

Going from “SMVTVERPESTKTIDAPPSATVEFDPATGTLRVYSPDGTATTVPLSPTWSIQPSDNSVTVTAPPASPAAPSA [r9_653_JUSTAS]” to “SAGGKKKKVKKIKVKVKIKLKNGEEVTITEAYVLPDGTVIIKVEVTKPDGSKETKTFTIPLKDIEIESAGGS [r16_498_TrROS_Hall]”, the “folding stability dG unfold” value rises from 0.669 ± 0.1 kcal/mol to 3.7 ± 0.07 kcal/mol.

First: SAGFSITVDYEPEKGLWTVTFTSPPSTSPLSPEEVKETAREIAEKQGIKYELIEISREGNTWTMTIKVLSAG [r14_556_JUSTAS]
Second: SAGWIMINSPEDAERIVEELRKLLPPGYKIDVEPMPNGSVMIEFENPEEGREIKIHYDRRNGMYWIEPVSAG [r5_358_TrROS]
The “folding stability dG unfold” value of the first is higher: 5.48 ± 0.082 kcal/mol for the first, 2.54 ± 0.079 kcal/mol for the second.

First: SAGGSKYPIEVTDPENGNPVLLEDVESLASVTQEEPGDGRSLYTATVPETGEPVFLTSPEKLAAALSSAGGS [r8_206_JUSTAS]
Second: SAGGSAEVVEREEYFEEKLPNGEKVKVRRIVTEITPIPGLPGYRVEYTVTVEIGDEWETYPLEVAESAGGSA [r15_465_JUSTAS]
The “folding stability dG unfold” value of the first is lower: 0.0753 ± 0.19 kcal/mol for the first, 1.51 ± 0.026 kcal/mol for the second.

First: SAGGMELLGEVTVEKPGKPITFPIYRVPDEPREVVEVRELDPSTGKWTPIGTRELPPGEAERAIEELSAGGS [r8_423_JUSTAS]
Second: SAGGSAGGSAGGEDLKINIKISEITFSPDGWITMSMRGGNGRWFQHTIKVKIKLPPGDPSAGGSAGGSAGGS [r10_281_TrROS]
The “folding stability dG unfold” value of the first is lower: 0.573 ± 0.17 kcal/mol for the first, 3.15 ± 0.038 kcal/mol for the second.

First: SAGGSAGGKEKLIVKIKIEKKVKLENGEEKKVKKTIVVEMTPEEVKELLKKLKKENVTEVEIFPSAGGSAGG [r6_984_TrROS_Hall]
Second: SAGGSAGGPLRIEIEIKIEIFPFPDGWYLIRMTIKIKVYNPGEDGQPIAEYEITFYFIIPPGDFSAGGSAGG [r6_60_TrROS]
The “folding stability dG unfold” value of the first is lower: 2.51 ± 0.31 kcal/mol for the first, 6.06 ± 0.15 kcal/mol for the second.

Compared with “SAGMLDVPDDAEITVLVSLEKVPLPGDSSERVLAGVVKLKVKTLPNGEQVIESAEIKIVSAEELKKAGLSAG [r5_340_TrMRF]”, “SAGGSAGGMNPTVTPVEVDVGDKPLTVFLFGDGTALVLFPDGGLAGAPVGTPDDRPVNLAIIGPSAGGSAGG [r6_239_TrMRF]” is lower in “folding stability dG unfold” value: 1.6 ± 0.099 kcal/mol for the first, 0.955 ± 0.053 kcal/mol for the second.

First: SAGGSAGGSADNKPFKVEIDVEHHPPNGYYRVTIEWPDGREIVVWMPGNPDEAKDQAKELISAGGSAGGSAG [r3_143_TrROS]
Second: SAGGSAGGSFEILEVHPVKDGWLMIVVRTPGKMKVITIPPDDLDEIPGLDDIAIFPVKDGEPISAGGSAGGS [r12_343_TrROS]
The “folding stability dG unfold” value of the first is lower: 1.26 ± 0.22 kcal/mol for the first, 1.65 ± 0.12 kcal/mol for the second.

assay: folding stability dG unfold (combined trypsin and chymotrypsin); higher = more stable
Outline: as §1

Compared with “SAGGSAGGSASMSPEELAEKYREEYEKKYGIPAVEVKVEVIPEEEKYVITIKLPGSEITVIVSAGGSAGGSA [r18_145_JUSTAS]”, “SAGSVTITLNIPPGQDVTLNIGGKEATLTVDPETKVYTMTDPQTGDVWTVTVDPNSPVASVTYTAAPAGSAG [r5_302_JUSTAS]” is lower in “folding stability dG unfold” value: 3.11 ± 0.13 kcal/mol for the first, 1.37 ± 0.11 kcal/mol for the second.

Going from “SAGKKYVVVIDIEVKMPGKTKPRPIVIPVPEGETIKEQLSELPGLDNVKIKIQVIPPDQDPDFAGQPISAGG [r19_339_TrROS]” to “SAGGMTLEELKEALKKLPPNVKEVKITVVEKNGKLVVVVEVNGKKLVIEFDSEEERKLAEELVKELLSSAGG [r13_287_TrROS_Hall]”, the “folding stability dG unfold” value rises from 1.2 ± 0.29 kcal/mol to 3.45 ± 0.24 kcal/mol.

Going from “SAGGSAGGSNEKKYIYRAKITIPGKEGEKPFEIEFESEEEVIELVEKLFPKENIKLEVEKFELDSAGGSAGG [r6_113_TrMRF]” to “SAGGSAGGSAGGDESYRKLLEELPLPVTEIVVETVPLPETDEPITVVTPKNPDGKEVTLGSAGGSAGGSAGG [r7_337_JUSTAS]”, the “folding stability dG unfold” value falls from 2.33 ± 0.15 kcal/mol to -0.284 ± 0.14 kcal/mol.

First: SAGGSAGGSAGGPLIVFERNADGTLTAVAVDEETGEVTVTRVTLKDGKLTVETETLPLDESAGGSAGGSAGG [r7_28_TrROS_Hall]
Second: SAGGSAKKKIKIKVKNKDGSVYELEFDEENGIVKITYKDGKKEELSVEELKKLPLPKNITEVEIVPSAGGSA [r15_1043_TrROS_Hall]
The “folding stability dG unfold” value of the first is lower: 1.65 ± 0.042 kcal/mol for the first, 2.25 ± 0.059 kcal/mol for the second.

First: SAGGSAGGSAGGEPIYIRINNYYIVINLDDGNIRVYPPMKGKKKKVPANDIKPIDPGDISAGGSAGGSAGGS [r10_709_TrROS]
Second: SAGGSAGGSAGGIKKGDKIKIVKVKVEKRYDKDGKLVEERIVSIEEEEIEVPSLEDLLKASAGGSAGGSAGG [r7_439_TrROS_Hall]
The “folding stability dG unfold” value of the first is higher: 1.07 ± 0.076 kcal/mol for the first, 0.654 ± 0.25 kcal/mol for the second.

Going from “SAGGMTEELEITTPDNYKIKITKTLNPNTTKPTYTVKIYEKKSGKVLLEKEFSSLEEAEEFIKNGYGSAGGS [r8_450_TrMRF]” to “SAGGSAGGSAGGSGMTLPIPLSELTTEEIRELTKPDEDLVIKTEEDEPVVIPYGEIKPESAGGSAGGSAGGS [r4_382_JUSTAS]”, the “folding stability dG unfold” value falls from 4.65 ± 0.069 kcal/mol to 0.204 ± 0.077 kcal/mol.

Going from “SVTVDEIAEWFANSFQQHGMKDVKVDVTVEPDPKNGRVRVDVQIRMTYPNPDGEKHRFEMTIPVEIPPNDSA [r9_440_TrROS]” to “SAGGSAVTITVDDFEDIEDAEITLTRPDGRPVVARVRVEKGEGAPRVTVLWREPGSGRYRVETFPLSAGGSA [r15_1006_TrMRF]”, the “folding stability dG unfold” value falls from 1.99 ± 0.12 kcal/mol to 1.28 ± 0.07 kcal/mol.

Going from “MTPDDMKDPNGMPPEDMWMVEIYVPRRDPEDGGPKWKPVGTIFIPPGMDPEELNEIIEELPGLDLIEIYPMS [r1_132_TrROS]” to “SMKPPVVEIKAKVVEVKEVNGKLYVKVEITEIKDAPPEVKELIKEGKTILVEVKPGEEVKEGDEVTIKIVSA [r9_557_TrROS_Hall]”, the “folding stability dG unfold” value rises from 1.33 ± 0.14 kcal/mol to 2.32 ± 0.3 kcal/mol.

Going from “SAGGSAMTPEEIRNMSLEEILKLIKEKLEKGEKVEIEITLPDGRKLRITFERLPNGEIKITIEEVDSAGGSA [r15_857_TrROS_Hall]” to “SMVTVERPESTKTIDAPPSATVEFDPATGTLRVYSPDGTATTVPLSPTWSIQPSDNSVTVTAPPASPAAPSA [r9_653_JUSTAS]”, the “folding stability dG unfold” value falls from 4.72 ± 0.28 kcal/mol to 0.421 ± 0.066 kcal/mol.

First: SAGGKKKKVKKIKVKVKIKLKNGEEVTITEAYVLPDGTVIIKVEVTKPDGSKETKTFTIPLKDIEIESAGGS [r16_498_TrROS_Hall]
Second: SAGFSITVDYEPEKGLWTVTFTSPPSTSPLSPEEVKETAREIAEKQGIKYELIEISREGNTWTMTIKVLSAG [r14_556_JUSTAS]
The “folding stability dG unfold” value of the first is lower: 3.34 ± 0.11 kcal/mol for the first, 5.39 ± 0.13 kcal/mol for the second.

First: SAGWIMINSPEDAERIVEELRKLLPPGYKIDVEPMPNGSVMIEFENPEEGREIKIHYDRRNGMYWIEPVSAG [r5_358_TrROS]
Second: SAGGSKYPIEVTDPENGNPVLLEDVESLASVTQEEPGDGRSLYTATVPETGEPVFLTSPEKLAAALSSAGGS [r8_206_JUSTAS]
The “folding stability dG unfold” value of the first is higher: 2.59 ± 0.11 kcal/mol for the first, 0.384 ± 0.11 kcal/mol for the second.

Going from “SAGGSAEVVEREEYFEEKLPNGEKVKVRRIVTEITPIPGLPGYRVEYTVTVEIGDEWETYPLEVAESAGGSA [r15_465_JUSTAS]” to “SAGGMELLGEVTVEKPGKPITFPIYRVPDEPREVVEVRELDPSTGKWTPIGTRELPPGEAERAIEELSAGGS [r8_423_JUSTAS]”, the “folding stability dG unfold” value falls from 1.61 ± 0.064 kcal/mol to 0.544 ± 0.16 kcal/mol.

Going from “SAGGSAGGSAGGEDLKINIKISEITFSPDGWITMSMRGGNGRWFQHTIKVKIKLPPGDPSAGGSAGGSAGGS [r10_281_TrROS]” to “SAGGSAGGKEKLIVKIKIEKKVKLENGEEKKVKKTIVVEMTPEEVKELLKKLKKENVTEVEIFPSAGGSAGG [r6_984_TrROS_Hall]”, the “folding stability dG unfold” value falls from 3 ± 0.12 kcal/mol to 2.55 ± 0.26 kcal/mol.

Going from “SAGGSAGGPLRIEIEIKIEIFPFPDGWYLIRMTIKIKVYNPGEDGQPIAEYEITFYFIIPPGDFSAGGSAGG [r6_60_TrROS]” to “SAGMLDVPDDAEITVLVSLEKVPLPGDSSERVLAGVVKLKVKTLPNGEQVIESAEIKIVSAEELKKAGLSAG [r5_340_TrMRF]”, the “folding stability dG unfold” value falls from > 6 kcal/mol to 1.43 ± 0.17 kcal/mol.

First: SAGGSAGGMNPTVTPVEVDVGDKPLTVFLFGDGTALVLFPDGGLAGAPVGTPDDRPVNLAIIGPSAGGSAGG [r6_239_TrMRF]
Second: SAGGSAGGSADNKPFKVEIDVEHHPPNGYYRVTIEWPDGREIVVWMPGNPDEAKDQAKELISAGGSAGGSAG [r3_143_TrROS]
The “folding stability dG unfold” value of the first is lower: 0.927 ± 0.073 kcal/mol for the first, 1.31 ± 0.16 kcal/mol for the second.

With “SAGGSAGGSFEILEVHPVKDGWLMIVVRTPGKMKVITIPPDDLDEIPGLDDIAIFPVKDGEPISAGGSAGGS [r12_343_TrROS]” the “folding stability dG unfold” value was 1.38 ± 0.21 kcal/mol.
